In the supplement of paper PMC10567573:

B1: GALNT9 (parent)
chain: FTQSGPIVSRATGRCLEVEMSKDA
B2: RIT1 (parent)
chain: FHALVREIRRKEKEAVLAMEKKSK

Variants of: B1
Experiment: protein stability index of a GFP-peptide fusion (GPS, HEK-293T) (PSI 1-6); higher = more stable
Conditions: c terminus: a fixed tail appended
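Further: lentivirally expressed fusions sorted by FACS into six bins by GFP to DsRed ratio, PSI derived from sequencing read proportions per bin multiplied by bin number.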

Protein stability index: each site, then its substitutions
F1: E 4.08; Q 2.98; P 1.87; G 3.15; N 3.15; W 2.3; D 3.51; Y 2.03; I 2; C 3.31; M 1.74; H 2.93; K 3.17; L 2
Q3: Y 1.73; E 2.51; S 2.48; D 1.83; T 1.94; F 2.34; H 2.04; I 1.58; G 1.73; W 1.51; K 2.54; A 2.01; P 1.34; L 1.84; M 3.03; R 1.48; N 1.24
G5: L 1.53; N 2.34; S 2.54; I 1.64; T 2.46; Q 2.37; F 2.62; H 2.42; V 2.39; A 1.81; R 1.66; Y 3.35; D 2.74; C 2.57
P6: M 3.4; N 1.07; C 1.72; E 1.85; T 1.42; D 2.08
T2: D 2.97; I 2.01; Y 2.53; W 1.43; K 1.72; Q 2.35; S 2.71; A 1.92; L 2.25; E 3.58; R 1.75; C 2.96; F 3.05; N 2.17
I7: A 2.25; C 1.89; D 3.31; E 2.63; G 1.79; H 2.66; L 1.18
S4: Y 2.24; K 1.88; E 2.3; A 2.37; H 1.91; Q 2.35; G 2.01; L 2.78; C 1.48; T 2.82; N 1.85; P 2; I 3.66

Variants of: B2
Experiment: as above
Conditions: c terminus: a fixed tail appended

Protein stability index: each site, then its substitutions
M19: W 1.53; A 1.68; L 3.14; I 1.24; S 1.79; F 2.23; G 2.23
R9: N 2.23; I 2; H 1.54; A 1.82; D 2.48; E 2.06; W 2.02; V 2.42; S 1.85; M 2.03; P 2.8
K11: V 1.99; W 2.11; I 1.55; P 2.46; G 2; L 2.16; R 1.55; Q 2.47; A 1.47; H 2.05
H2: F 2.73; Q 2.95; C 2.57; G 2.83; T 2.55; N 3.23; L 2.61; W 3.04
E12: C 1.81; R 2.06; S 3; V 2.48; M 3.96; A 3.79; T 2.42; Y 2.69; D 2.13; K 2.03
E20: Q 1.65; V 2.52; P 2.42; I 1.94; G 1.41; L 1.61; K 2.08; D 2.17; S 2.53
L17: H 2.11; C 2.16; P 1.77; Q 1.88; W 1.7; E 2.09; K 1.97; I 2.1; G 1.7; M 1.86; F 2.12
V5: Q 2.19; F 1.97; R 2.27; N 1.8; I 2.56; T 1.98; D 2.85; K 1.84; G 2.14
A15: S 2.52; P 2.9; D 2.3; E 1.58; Q 2.19; F 1.91; I 2.05; Y 2.12; V 2.4; M 2.17; R 1.72
R10: K 1.33; G 2.06; P 2.31; D 1.94; I 2.61; C 2.7; S 1.59; E 1.7; A 3.88
S23: T 1.67; H 1.67; Q 2.22; E 1.7; I 1.76; G 1.68; C 2.27; P 1.37
K22: Q 1.67; F 1.84; D 1.8; H 1.57; A 2.4; V 1.55; G 1.83
E14: Y 2.17; I 1.85; A 2.29; F 2.15; R 1.84; S 1.8; T 1.93; K 2.89; P 1.73; M 2.1
R6: K 1.43; Q 1.84; G 1.76; Y 1.73; A 1.34; C 2.07; T 3.19; F 2.74; W 1.81; V 1.75; P 1.81; M 1.81; I 2.22; N 2.47; S 2.06
K13: T 1.77; C 2.01; A 2.04; R 1.67; Q 2.58; G 1.37; F 2.27; N 2.02; W 1.95; S 2.42; L 3.67
K24: F 1.77; H 1.86; W 1.24; L 1.99; C 2.24; G 2.4; Q 1.23; M 1.78
E7: K 1.36; F 1.82; H 1.97; I 2.24; L 4.8; M 2.82; D 1.8; S 2.44; Q 1.32; T 1.5; R 1.87; V 3.23; N 2.44
K21: N 1.77; Q 2.66; P 2.17; S 1.56; C 1.99; H 2.68; A 1.9; G 2.17; T 2.11; M 1.28; D 2.14; F 2.74
A18: P 1.23; H 2.85; N 3.42; C 1.89; M 2.08; D 1.96; E 1.22; L 1.66; W 1.68; G 1.71; V 1.84; I 1.69; F 2.15; T 1.91
V16: W 2.27; D 1.3; S 2.64; E 2.59; N 1.42; Q 2.22; F 2.45; L 2.05; R 2.69
A3: N 1.87; G 2.15; R 2.05; Y 2.13; P 1.45; S 1.42; T 2.28; L 1.97; V 1.69; E 1.48; K 2.04; Q 2.45; H 1.41
L4: Y 2.66; T 2.23; M 3.92; A 2.06; Q 2.08; K 2.99; R 2.44; H 2.36; E 3.18; N 2.65; V 2.24; W 1.77
F1: T 4.16; H 4.2; S 4.14; C 3.53; N 4.67; M 3.69; G 4.36; P 4.61; V 3.04; Y 1.92; W 2.43
I8: E 2.87; P 2.28; Q 2.47; F 2.34; K 2.31; R 2.32; W 2.35; C 2.25; N 2.77; V 1.78; A 2.93
